From patent publication US20230220073A1 (UCL BUSINESS, published 2023)

Key:
[1] = target: Q(261)H mutation (human, UniProt Q01973); test: flow cytometry, Q(261)H-transduced SUP-T1 cells (eGFP), DyLight647
Method: FIG. 6A-FIG. 6D: Epitope mapping of ROR1 clone F MAb. FIG. 6A-FIG. 6B: Reactivity of clone F with ROR1-derived overlapping peptides was analyzed by ELISA. Since no linear epitope was identified, FIG. 6C-FIG. 6D: amino acid substitution of non-conserved regions within the Fz domain was performed in ROR1-Fz transduced cell lines. Circles indicate essential amino acids for antibody binding. One out of three experiments is shown. Experiments were done in triplicates. Error bars represent SD.
(§1) Retroviral vectors were used for transducing SUP-T1 cells and transduction was tested by GFP expression using flow cytometry.

[2] = target: T1, Histidine-tagged ROR1 protein (extracellular region) (UniProt Q01973 30-406); test: SPR, Biacore X100; antibody captured by anti-human IgG1 on CM5 chip, His-tagged ROR1 extracellular portion injected at 1.5-100 nM
T1 construct: extracellular domain; also called extracellular portion of ROR1 bearing a Histidine tag; not shown: Histidine tag
Method: FIG. 3: KD determination by surface plasmon resonance. Sensorgrams obtained using a Biacore X100 instrument are shown. Briefly, ROR1 antibodies were immobilized using a CM5 chip and seven different concentrations of the Histidine-tagged ROR1 protein (extracellular region) were injected. Concentrations ranged from […].
We undertook surface plasmon resonance evaluation using a Biacore X100 instrument. ROR1 chimeric antibodies were immobilised using an anti-human IgG1 antibody capture kit and a CM5 sensor chip. Seven different concentrations, ranging from 1.5-100 nM, of the extracellular portion of ROR1 bearing a Histidine tag were then injected.

[3] = target: T2, ROR1, full extracellular region, on transduced SUP-T1 cells (UniProt Q01973 30-406); test: flow cytometry, ROR1-transduced cells, single staining; Q1 = ahFc+ only; amFc+ahFc alone Q1 0.060
T2 construct: extracellular domain; also called eROR1; extracellular ROR1
Excerpt: FIG. 7A-FIG. 7C: Competition assay by flow cytometry. Clone A (SA1) in murine IgG2a, k (mSA1) along with other ROR1 MAbs in human IgG1, k-including previously published 4a5, D10 and R12 clones—were used for staining ROR1-transduced cells. MAb staining was done as FIG. 7A-FIG. 7B: single agents or FIG. 7C: in combination with clone A (mSA1). Anti-human IgG (450) and anti-mouse IgG (DyLight649) were used as secondary antibodies. Combined staining using clones F and mSA1 acted as negative control for overlapping epitopes.
In FIG. 7C, three different columns are presented. Dot plots on the first column correspond to ROR1 binding assessed when SUP-T1 ROR1 cells were stained with clone A (SA1) (mIgG) in the first instance. After a washing step, cells were stained with a competitor antibody (hIgG), followed by another washing step. Both antibodies were then detected by a third staining step using the appropriate secondary antibodies. In the second column, a similar approach was taken when staining these cells, except that this time it was the antibody in hIgG1, k format the one used for the first staining step, followed by clone A (SA1) staining. On the third column, both antibodies were used at the same time.

[4] = target: T3, ROR1 Ig-like domain alone, on transduced SUP-T1 cells (human, UniProt Q01973 30-147, limits assumed); test: flow cytometry, transduced SUP-T1 cells, anti-human Fc-Dylight647
T3 construct: domain: Ig-like; also called immunoglobulin domain
Method: (§2) FIG. 1A-FIG. 1C: Identification of ROR1 binding domain: FIG. 1A: SUP-T1 cells were transduced with retroviral vectors containing either the full extracellular portion of ROR1 or only one or two extracellular domains. Non-transduced SUP-T1 (SUP-T1 NT) cells served as negative control. FIG. 1B: All 12 chimeric antibodies and FIG. 1C all 10 positive clones in scFv format were incubated with SUP-T1 NT and the new stable cell lines at 4° C. for 30 min. Cells were washed and stained with a secondary antibody (anti-human Fc-Dylight647), which was used as negative control. eROR1=extracellular ROR1, Ig-like=Immunoglobulin-like domain, Fz=Frizzled domain, Kg=Kringle domain.

[5] = target: T4, Kringle (Kg) (human, UniProt Q01973); test: as above
T4 construct: also called ROR1 Kringle domain alone, on transduced SUP-T1 cells
Method: as §2

[6] = target: T5, ROR1 Fz domain with Q(261)H and I(254)V, on transduced SUP-T1 cells (human, UniProt Q01973 165-299); test: flow cytometry on SUP-T1 cells transduced with mutated ROR1 Fz domain
T5 construct: domain: Fz

[7] = target: T6, ROR1 Ig-like+Frizzled (Fz) domains, on transduced SUP-T1 cells (UniProt Q01973 30-299, limits assumed); test: flow cytometry, transduced SUP-T1 cells, anti-human Fc-Dylight647
T6 construct: domain: Ig-like+Frizzled (Fz); also called Ig-Fz protein
Method: as §2

[8] = target: T7, ROR1 Frizzled domain alone, on transduced SUP-T1 cells (human, UniProt Q01973 165-299); test: as above
T7 construct: domain: Fz; also called Fz; ROR1-Fz domain
Method: as §2

[9] = target: T2, ROR1, full extracellular region, on …; test: as above
Method: as §2

[10] = target: T8, Fz+Kg (human, UniProt Q01973); test: as above
T8 construct: also called ROR1 Frizzled+Kringle domains, on transduced SUP-T1 cells
Method: as §2

[11] = target: T9, SKW 6.4 GFP (human, UniProt Q01973); test: flow cytometry, SKW 6.4 GFP cells stained at 4 C, anti-human Fc-Dylight 647
T9 construct: on the cell surface; also called ROR1 endogenously expressed on SKW 6.4 cells
Method: FIG. 8A-FIG. 8C: Internalisation of ROR1 antibodies on SKW 6.4 GFP cells by flow cytometry. SKW 6.4 GFP cells were stained at 4° C. and either kept on ice (blue line) or incubated at 37° C. (yellow line) for 1 h. […] Clones A, F and Mu (purple circle) were selected for further investigation. Clones R12 and 4a5 (in black) served as negative and positive control, respectively. Anti-human Fc-Dylight 647 was used as secondary antibody and as staining control (red line). MFI=Median Fluorescence Intensity.
After 30 min, cells were washed with ice-cold PBS, and either left on ice or incubated at 37° C. for 1 h. Subsequent staining with an anti-human Fc-Dylight 647 was used to detect any primary antibody that had remained on the cell surface. Previously reported clones R12 and 4a5 were also included in this assay as negative and positive controls, respectively (FIG. 8).

[12] = target: T10, CLL2 ROR1high (human, UniProt Q01973); test: flow cytometry, cells stained at 4 C, ahFc-DyLight647
T10 construct: on the cell surface; also called ROR1 on primary CLL cells with high ROR1
Method: FIG. 9A-FIG. 9C: Internalisation of ROR1 MAbs on SKW 6.4 GFP and CLL cells by flow cytometry. Cells were stained at 4° C. and either left on ice or incubated at 37° C. for 15 min, 1 h and 2 h. Cells were then analysed using an anti-human IgG as secondary antibody. FIG. 9A-FIG. 9B: Histograms and FIG. 9C: Trends over time showing the MFI reduction over time are presented. The % of MFI reduction was calculated as described in the Materials and Methods chapter. Phenylarsine oxide (PAO), an endocytosis inhibitor, acted as negative control (PAO-120).
To distinguish between dissociation and internalisation, SKW 6.4 cells were incubated on ice in the presence of our selected antibodies for 30 min. Cells were then washed with ice-cold PBS and either left on ice or incubated at 37° C. for 15 min, 1 h or 2 h. For the 2 h time point, a duplicate sample was incubated with PAO (10 μM). Immediately after incubation, all samples were washed with ice-cold PBS and stained with an anti-human Fc-Dylight 647 for 30 min. Cells were analysed by flow cytometry and MFI reduction was calculated.
Samples were processed as mentioned above and analysed by flow cytometry. […] This was even clearer on CLL cells, where virtually no internalisation of clone V was detected.

[13] = target: T11, ROR1 Ig-like domain with NISSE at residues 47 to 51 replaced by FQDDL, on transduced SUP-T1 cells (human, UniProt Q01973 30-147, limits assumed); test: flow cytometry on SUP-T1 cells transduced with mutated ROR1 Ig-like domain
T11 construct: domain: Ig-like; also called five amino acid substitution

[14] = target: T12, I(48)Q mutation (human, UniProt Q01973); test: flow cytometry, I(48)Q-transduced cells (eGFP), DyLight647
T12 construct: The text speaks of the Ig-like domain; the axis on sheet D00010 reads ROR1 Ig-like+Fz+Kg; also called ROR1 with I(48)Q in the Ig-like domain, on transduced SUP-T1 cells
Method: FIG. 5A-FIG. 5H: Epitope mapping of ROR1 clone A MAb. FIG. 5A-FIG. 5B: Reactivity of clone A with ROR1-derived overlapping peptides was analyzed by ELISA. FIG. 5C-FIG. 5H: Amino acid substitution within the epitope binding region was performed in ROR1-transduced cell lines. Also, the previously described clones R12, 4a5 and D10 were also included for comparison. Red circles indicate essential amino acids for antibody binding. One out of three experiments is shown. Experiments were done in triplicates. Error bars represent SD.
as §1

T1 sequence (Q01973 30-406): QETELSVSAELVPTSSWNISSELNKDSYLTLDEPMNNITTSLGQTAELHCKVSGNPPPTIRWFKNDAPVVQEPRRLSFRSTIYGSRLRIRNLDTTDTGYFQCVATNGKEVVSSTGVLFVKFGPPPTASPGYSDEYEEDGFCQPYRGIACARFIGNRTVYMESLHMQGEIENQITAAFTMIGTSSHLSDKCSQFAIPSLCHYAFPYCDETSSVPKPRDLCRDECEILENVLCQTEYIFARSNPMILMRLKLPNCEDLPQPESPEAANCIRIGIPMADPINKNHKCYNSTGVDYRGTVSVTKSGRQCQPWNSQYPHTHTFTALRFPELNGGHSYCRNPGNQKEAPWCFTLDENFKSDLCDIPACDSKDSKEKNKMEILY
T2 sequence (Q01973 30-406): as above
T7 sequence (Q01973 165-299): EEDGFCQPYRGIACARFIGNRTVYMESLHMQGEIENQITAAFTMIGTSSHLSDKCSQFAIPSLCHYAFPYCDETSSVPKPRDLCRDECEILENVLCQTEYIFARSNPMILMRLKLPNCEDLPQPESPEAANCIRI
T8 sequence (Q01973 165-391 limits assumed): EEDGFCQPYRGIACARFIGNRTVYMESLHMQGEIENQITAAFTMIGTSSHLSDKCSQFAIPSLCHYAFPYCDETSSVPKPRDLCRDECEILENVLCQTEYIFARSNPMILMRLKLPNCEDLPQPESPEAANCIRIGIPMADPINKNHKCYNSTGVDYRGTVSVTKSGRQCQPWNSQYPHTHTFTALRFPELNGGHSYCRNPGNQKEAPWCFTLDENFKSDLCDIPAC
T4 sequence (Q01973 312-391 limits assumed): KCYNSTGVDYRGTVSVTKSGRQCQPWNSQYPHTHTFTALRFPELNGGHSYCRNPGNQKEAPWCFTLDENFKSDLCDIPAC
T3 sequence (Q01973 30-147 limits assumed): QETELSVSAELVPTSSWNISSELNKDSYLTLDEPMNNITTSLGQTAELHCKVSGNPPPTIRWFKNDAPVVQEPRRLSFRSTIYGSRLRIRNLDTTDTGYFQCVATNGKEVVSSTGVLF
T6 sequence (Q01973 30-299 limits assumed): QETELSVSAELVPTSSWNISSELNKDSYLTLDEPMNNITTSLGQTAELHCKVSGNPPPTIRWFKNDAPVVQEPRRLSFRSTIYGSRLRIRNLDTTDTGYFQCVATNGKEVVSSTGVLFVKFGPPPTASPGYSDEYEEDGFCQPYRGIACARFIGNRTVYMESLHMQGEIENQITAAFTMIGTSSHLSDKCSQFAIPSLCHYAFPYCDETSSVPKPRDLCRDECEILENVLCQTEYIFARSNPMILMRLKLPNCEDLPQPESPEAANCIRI
T12 sequence (Q01973 other isoform, or with tags, fused parts or gaps limits assumed): as the sequence (Q01973 30-406) above, with I19Q counted along it
T11 sequence (Q01973 other isoform, or with tags, fused parts or gaps limits assumed): as the sequence (Q01973 30-147 limits assumed) above, with N18F, I19Q, S20D, S21D, E22L counted along it
T10 sequence (Q01973 30-937 limits assumed): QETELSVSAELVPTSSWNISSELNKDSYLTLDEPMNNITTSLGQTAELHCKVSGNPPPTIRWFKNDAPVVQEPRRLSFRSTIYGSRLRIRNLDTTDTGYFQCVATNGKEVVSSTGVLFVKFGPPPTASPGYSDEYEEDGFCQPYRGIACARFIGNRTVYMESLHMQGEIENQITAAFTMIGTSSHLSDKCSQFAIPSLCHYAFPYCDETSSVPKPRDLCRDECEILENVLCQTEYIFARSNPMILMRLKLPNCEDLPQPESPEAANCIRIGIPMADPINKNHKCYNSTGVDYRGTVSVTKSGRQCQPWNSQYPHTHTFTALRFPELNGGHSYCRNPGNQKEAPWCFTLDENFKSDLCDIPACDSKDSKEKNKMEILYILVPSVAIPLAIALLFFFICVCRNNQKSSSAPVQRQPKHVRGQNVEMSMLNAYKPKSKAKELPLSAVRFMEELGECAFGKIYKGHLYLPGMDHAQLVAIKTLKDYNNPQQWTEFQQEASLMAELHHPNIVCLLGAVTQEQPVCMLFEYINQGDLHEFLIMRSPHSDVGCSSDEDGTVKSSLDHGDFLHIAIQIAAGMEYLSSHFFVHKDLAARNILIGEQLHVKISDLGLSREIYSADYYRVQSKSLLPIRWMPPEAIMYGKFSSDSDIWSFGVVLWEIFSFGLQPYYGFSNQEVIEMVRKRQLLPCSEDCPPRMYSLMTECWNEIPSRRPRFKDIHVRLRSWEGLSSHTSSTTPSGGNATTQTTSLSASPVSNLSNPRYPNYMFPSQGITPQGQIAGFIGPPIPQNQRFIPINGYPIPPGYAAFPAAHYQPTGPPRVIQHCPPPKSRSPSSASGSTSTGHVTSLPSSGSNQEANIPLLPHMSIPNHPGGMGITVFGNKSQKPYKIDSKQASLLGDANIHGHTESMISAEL
T9 sequence (Q01973 30-937 limits assumed): as above
Q(261)H mutation, sequence (Q01973 165-299 Q261H limits assumed): as the sequence (Q01973 165-299) above, with Q97H counted along it
T5 sequence (Q01973 165-299 I254V/Q261H): as the sequence (Q01973 165-299) above, with I90V, Q97H counted along it

| Binder | binding result [1] | Kd [2] [nM] | koff [2] [s⁻¹] | kon [2] [M⁻¹ s⁻¹] | Q1 quadrant figure [3] | binding result [4] | binding result [5] | binding result [6] | binding result [7] | binding result [8] | binding result [9] | binding result [10] | binding result [11] | binding result [12] | binding result [13] | binding result [14] |
| --- | --- | --- | --- | --- | --- | --- | --- | --- | --- | --- | --- | --- | --- | --- | --- | --- |
| Clone F chimeric ROR1 antibody (antibody, V domains shown) VH: EVQLVESGGGLVQPGRSLKLSCAASGFIFSEHNMAWVRQAPKKGLEWVATISDDGRNTYYRDSMRGRFTISRENARSTLYLQLDSLRSEDTATYYCASHRYNLFDSWGQGVMVTVSS VL: DIQMTQSPSFLSASVGDRVTINCKASQNIDRYLNWYQQKLGEAPKRLLYNTNKLQTGIPSRFSGSGSATDFTLTISSLQPEDFATYFCLQYNSLPLTFGSGTKLEIK | no binding | 5.46 | 0.000836 | 153000 | 85 | no binding | no binding | no binding |  |  |  |  |  |  |  |  |
| Clone Mu chimeric ROR1 antibody (antibody, V domains shown) VH: QVQLQQSGAELVKPGSSVRISCKASGYTITSYDMHWIKQQPGNGLEGIGWIHPGNGKIKYNQKFNGKATLTVDKSSSTAYMQLSSLTSEDSAVYFCARGTTRVFPWFAYWGQGTLVTVSS VL: QFTLTQPKSVSGSLRSTITIPCERSSGDIGDNYVSWYQQHLGRPPINVIYADDQRPSEVSDRFSGSIDSSSNSASLTITNLQMDDEADYFCQSFDSNFDIPVFGGGTKLTVL |  |  |  |  |  | binds | no binding |  | binds | no binding | binds | no binding |  |  |  |  |
| Clone V chimeric ROR1 antibody (antibody, V domains shown) VH: EVQLVESGGGLVQPGRSLKLSCAASGFSFSNYGMHWIRQAPTKGLEWVASISPTGGNTYYRDSVKGRFTISRDNTKSTLYLQMDSLRSEDTATYYCATDDLYYSGPFAYWGQGTLVTVSS VL: DIKMTQSPSFLSASVGDRVTINCKASQNITRFLNWYQQELGEAPTLLIYNTNNLQTGIPSRFSGSGSGTDFTLTISSLQPEDVATYFCLQHGSRPRTFGGGTKLELK |  |  |  |  |  | no binding | no binding |  | binds | no binding | binds | no binding | binds | binds |  |  |
| Clone A chimeric ROR1 antibody (antibody, V domains shown, also called SA1) VH: QVQLQQSGTELVKPASSVRISCKASGYTLTTNYMHWIRQQPGNGLEWIGWIYPGNGNTKFNHKFDGRTTLTADKSSSIVYMQLSSLTSEDSAVYFCARSDFDYWGQGVMVTVSS VL: DIQMTQSPSSMSASLGDRVTFTCQASQDIGNNLIWFQQKPGKSPRPLMYFATSLANGVPSRFSGSRSGSDYSLTISSLESEDLADYHCLQYREYPLTFGSGTKLDLK |  | 1.81 | 0.00104 | 577000 |  |  | no binding |  |  | no binding |  | no binding |  |  | no binding | no binding |
